Measurements as given in the supplement of paper PMC9112550, “Optimization of the antimicrobial peptide Bac7 by deep mutational scanning” (BMC Biology, 2022).

System: Escherichia coli TOP10
Test: shrunken log2 fold change of peptide-encoding DNA abundance (4.5 h post-induction vs induction); higher = less antimicrobial activity (less host growth inhibition)
Conditions: time post-induction: 4.5 h; library: site-saturation at positions 5, 18, 19, 20
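Further: peptides expressed intracellularly from a pBAD plasmid library in pooled LB shake-flask culture, induced with 0.3% L-arabinose, DNA abundance read by NGS, three biological replicates, DESeq2 with apeglm shrinkage.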

Row | Sequence | shrunken log2 fold change
1 | RRIRGRPPRLPRPRPRPTMQPRP | 0.907
2 | RRIRGRPPRLPRPRPRPTNLPRP | -0.0172
3 | RRIRGRPPRLPRPRPRPTPVPRP | 1.07
4 | RRIRGRPPRLPRPRPRPTQAPRP | 1.37
5 | RRIRGRPPRLPRPRPRPTQGPRP | 1.14
6 | RRIRGRPPRLPRPRPRPTRKPRP | 1.12
7 | RRIRGRPPRLPRPRPRPTRMPRP | 0.571
8 | RRIRGRPPRLPRPRPRPTSFPRP | 0.449
9 | RRIRGRPPRLPRPRPRPTTIPRP | 0.623
10 | RRIRGRPPRLPRPRPRPTVEPRP | 1.27
11 | RRIRGRPPRLPRPRPRPTVLPRP | 0.564
12 | RRIRGRPPRLPRPRPRPTWCPRP | 0.521
13 | RRIRGRPPRLPRPRPRPTWRPRP | 0.673
14 | RRIRGRPPRLPRPRPRPVAAPRP | 1.73
15 | RRIRGRPPRLPRPRPRPVAIPRP | 0.949
16 | RRIRGRPPRLPRPRPRPVATPRP | 2.32
17 | RRIRGRPPRLPRPRPRPVCGPRP | 0.866
18 | RRIRGRPPRLPRPRPRPVCHPRP | 0.54
19 | RRIRGRPPRLPRPRPRPVDAPRP | 0.395
20 | RRIRGRPPRLPRPRPRPVDGPRP | 0.587
21 | RRIRGRPPRLPRPRPRPVDMPRP | 0.255
22 | RRIRGRPPRLPRPRPRPVEKPRP | 0.198

Row | Sequence | shrunken log2 fold change
23 | RRIRGRPPRLPRPRPRPVESPRP | 0.00705
24 | RRIRGRPPRLPRPRPRPVFFPRP | 0.888
25 | RRIRGRPPRLPRPRPRPVFHPRP | 0.0913
26 | RRIRGRPPRLPRPRPRPVGKPRP | 0.646
27 | RRIRGRPPRLPRPRPRPVGLPRP | 0.954
28 | RRIRGRPPRLPRPRPRPVGTPRP | 0.304
29 | RRIRGRPPRLPRPRPRPVKVPRP | 0.425
30 | RRIRGRPPRLPRPRPRPVKWPRP | 0.47
31 | RRIRGRPPRLPRPRPRPVMSPRP | 0.401
32 | RRIRGRPPRLPRPRPRPVNGPRP | -0.0658
33 | RRIRGRPPRLPRPRPRPVPNPRP | 0.581
34 | RRIRGRPPRLPRPRPRPVSTPRP | 0.691
35 | RRIRGRPPRLPRPRPRPVVMPRP | 0.237
36 | RRIRGRPPRLPRPRPRPVVQPRP | 0.94
37 | RRIRGRPPRLPRPRPRPVWSPRP | 0.179
38 | RRIRGRPPRLPRPRPRPWCMPRP | 0.13
39 | RRIRGRPPRLPRPRPRPWDGPRP | 0.486
40 | RRIRGRPPRLPRPRPRPWGNPRP | 0.0898
41 | RRIRGRPPRLPRPRPRPWIIPRP | -0.121
42 | RRIRGRPPRLPRPRPRPWIMPRP | -0.209
43 | RRIRGRPPRLPRPRPRPWMLPRP | 0.0888
44 | RRIRGRPPRLPRPRPRPWNFPRP | -0.289

Row | Sequence | shrunken log2 fold change
45 | RRIRGRPPRLPRPRPRPWNPPRP | -0.448
46 | RRIRGRPPRLPRPRPRPWNTPRP | 0.111
47 | RRIRGRPPRLPRPRPRPWQRPRP | 0.0817
48 | RRIRGRPPRLPRPRPRPWQVPRP | -0.00145
49 | RRIRGRPPRLPRPRPRPWTFPRP | -0.00633
50 | RRIRGRPPRLPRPRPRPWTIPRP | 0.00608
51 | RRIRGRPPRLPRPRPRPWVIPRP | -0.257
52 | RRIRGRPPRLPRPRPRPWWNPRP | -0.148
53 | RRIRGRPPRLPRPRPRPWYKPRP | -0.015
54 | RRIRGRPPRLPRPRPRPWYMPRP | 0.0753
55 | RRIRGRPPRLPRPRPRPYAQPRP | 0.104
56 | RRIRGRPPRLPRPRPRPYDFPRP | -0.0968
57 | RRIRGRPPRLPRPRPRPYEAPRP | 0.045
58 | RRIRGRPPRLPRPRPRPYEWPRP | -0.027
59 | RRIRGRPPRLPRPRPRPYFEPRP | -0.123
60 | RRIRGRPPRLPRPRPRPYGAPRP | -0.00762
61 | RRIRGRPPRLPRPRPRPYGMPRP | 0.036
62 | RRIRGRPPRLPRPRPRPYLGPRP | 0.167
63 | RRIRGRPPRLPRPRPRPYMSPRP | 0.0366
64 | RRIRGRPPRLPRPRPRPYMVPRP | -0.296
65 | RRIRGRPPRLPRPRPRPYNGPRP | -0.0131
66 | RRIRGRPPRLPRPRPRPYNTPRP | 0.328

Row | Sequence | shrunken log2 fold change
67 | RRIRGRPPRLPRPRPRPYPKPRP | 0.161
68 | RRIRGRPPRLPRPRPRPYPTPRP | 0.0422
69 | RRIRGRPPRLPRPRPRPYRLPRP | -0.233
70 | RRIRGRPPRLPRPRPRPYSQPRP | -0.621
71 | RRIRGRPPRLPRPRPRPYTKPRP | -0.216
72 | RRIRGRPPRLPRPRPRPYTLPRP | -0.616
73 | RRIRGRPPRLPRPRPRPYTQPRP | -0.0862
74 | RRIRGRPPRLPRPRPRPYTTPRP | -0.083
75 | RRIRGRPPRLPRPRPRPYVEPRP | -0.00776
76 | RRIRHRPPRLPRPRPRPAATPRP | 0.292
77 | RRIRHRPPRLPRPRPRPACEPRP | 0.0343
78 | RRIRHRPPRLPRPRPRPAFRPRP | 0.0888
79 | RRIRHRPPRLPRPRPRPAGHPRP | -0.0991
80 | RRIRHRPPRLPRPRPRPAHAPRP | -0.0771
81 | RRIRHRPPRLPRPRPRPAHWPRP | -0.179
82 | RRIRHRPPRLPRPRPRPAINPRP | -0.221
83 | RRIRHRPPRLPRPRPRPAIPPRP | -0.112
84 | RRIRHRPPRLPRPRPRPAIVPRP | -0.167
85 | RRIRHRPPRLPRPRPRPAKKPRP | 0.0694
86 | RRIRHRPPRLPRPRPRPAKVPRP | 0.00133
87 | RRIRHRPPRLPRPRPRPAPMPRP | 0.164
88 | RRIRHRPPRLPRPRPRPAPSPRP | 0.709

Row | Sequence | shrunken log2 fold change
89 | RRIRHRPPRLPRPRPRPAQDPRP | 0.0349
90 | RRIRHRPPRLPRPRPRPARRPRP | 0.143
91 | RRIRHRPPRLPRPRPRPASTPRP | -0.357
92 | RRIRHRPPRLPRPRPRPAVHPRP | 0.0645
93 | RRIRHRPPRLPRPRPRPAYRPRP | -0.00502
94 | RRIRHRPPRLPRPRPRPCCPPRP | -0.243
95 | RRIRHRPPRLPRPRPRPCDLPRP | -0.502
96 | RRIRHRPPRLPRPRPRPCENPRP | -0.0381
97 | RRIRHRPPRLPRPRPRPCEPPRP | 0.195
98 | RRIRHRPPRLPRPRPRPCFAPRP | 0.0434
99 | RRIRHRPPRLPRPRPRPCFDPRP | -0.00612
100 | RRIRHRPPRLPRPRPRPCFGPRP | 0.104
101 | RRIRHRPPRLPRPRPRPCGMPRP | -0.0838
102 | RRIRHRPPRLPRPRPRPCHDPRP | 0.0948
103 | RRIRHRPPRLPRPRPRPCHEPRP | -0.0201
104 | RRIRHRPPRLPRPRPRPCMGPRP | -0.194
105 | RRIRHRPPRLPRPRPRPCMLPRP | -0.151
106 | RRIRHRPPRLPRPRPRPCNYPRP | -0.084
107 | RRIRHRPPRLPRPRPRPCTSPRP | -0.0185
108 | RRIRHRPPRLPRPRPRPCVPPRP | -0.00981
109 | RRIRHRPPRLPRPRPRPCVRPRP | -0.504
